PMC11137106

biological target: ribosomal protein L23 (E. coli (endogenous in A19 cell extract)) (UniProt P0ADZ0); experiment: cross-linking; zero-length EDC crosslinking of resuspended RNCs (ca. 30 nM) made in WT or Δtig A19 E. coli cell-free system (WT: TF 2–15 nM, DnaK 0.5 µM, DnaJ 0.04 µM, GrpE 0.05 µM), +/- puromycin; low-pH SDS-PAGE of the BODIPY-FL nascent chain and Western blots against L23, L24 and L29; percent crosslinking by ImageJ

% EDC crosslinking [%]	normalized % EDC crosslinking (per EDC-reactive residue beyond the ribosomal tunnel core) [%]	Substance
27.4	5.5	apoHmp_(1–55) ribosome-bound nascent chain (from UniProt P24232 1-55) (domain or fragment; other documents disagree on this pair)
92	4.6	apoHmp_(1–140) ribosome-bound nascent chain (from UniProt P24232 1-140) (domain or fragment; other documents disagree on this pair)
85	2.8	apoHmp_(1–189) ribosome-bound nascent chain (from UniProt P24232 1-189) (domain or fragment; other documents disagree on this pair)
